Patent publication US20260001928A1 (CORTERIA PHARMACEUTICALS, priority 2022, published 2026)
Blank lines part the entries; values can stand above or below the binder they belong to. *1 amine or outer side, *2 acyl side, *3 side chain or, on linkers, in order; H or OH if unused. Where no end group is shown, it is not given here. Side-chain parts run from the residue outwards. [ ]: non-standard residue; d: D form. The star is where a group is joined. C20 diacid = O=C(O)CCCCCCCCCCCCCCCCCCC(=O)*; C16 diacid = O=C(O)CCCCCCCCCCCCCCC(=O)*; γGlu = O=C(O)[C@H](CCC(=O)[*:2])N[*:1]; NMeI = CC[C@H](C)[C@H](NC)C(=O)O; Pentanoyl = CCCCC(=O)*; Aib = CC(C)(N)C(=O)O

Target: Rat CRF2 a (corticotropin-releasing factor receptor 2), on the A7R5 rat aortic smooth muscle cell line (rat, UniProt P47866 20-411)
Experiment: cell-based or functional assay

Chain of Rat CRF2 a (corticotropin-releasing factor receptor 2), on the A7R5 rat aortic smooth muscle cell line (P47866 20-411): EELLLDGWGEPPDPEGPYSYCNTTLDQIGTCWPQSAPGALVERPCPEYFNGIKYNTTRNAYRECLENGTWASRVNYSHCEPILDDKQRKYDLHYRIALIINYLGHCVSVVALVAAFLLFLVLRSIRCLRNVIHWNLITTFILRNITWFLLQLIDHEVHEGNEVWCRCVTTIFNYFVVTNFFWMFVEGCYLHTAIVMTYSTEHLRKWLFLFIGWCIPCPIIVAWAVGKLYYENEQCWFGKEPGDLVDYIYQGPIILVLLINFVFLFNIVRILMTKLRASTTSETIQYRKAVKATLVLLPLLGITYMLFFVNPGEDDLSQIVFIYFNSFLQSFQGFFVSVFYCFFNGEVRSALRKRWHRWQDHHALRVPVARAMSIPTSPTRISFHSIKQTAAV

B1: peptide of SEQ ID NO: 222 (peptide)
peptide: Pentanoyl-VLSLD[dV]PIKLK([γGlu-C20 diacid])KILLEQEKQKAQREQAETN[Aib]QILAQV-NH2
SMILES: CCCCC(=O)N[C@H](C(=O)N[C@@H](CC(C)C)C(=O)N[C@@H](CO)C(=O)N[C@@H](CC(C)C)C(=O)N[C@@H](CC(=O)O)C(=O)N[C@@H](C(=O)N1CCC[C@H]1C(=O)N[C@H](C(=O)N[C@@H](CCCCN)C(=O)N[C@@H](CC(C)C)C(=O)N[C@@H](CCCCNC(=O)CC[C@H](NC(=O)CCCCCCCCCCCCCCCCCCC(=O)O)C(=O)O)C(=O)N[C@@H](CCCCN)C(=O)N[C@H](C(=O)N[C@@H](CC(C)C)C(=O)N[C@@H](CC(C)C)C(=O)N[C@@H](CCC(=O)O)C(=O)N[C@@H](CCC(N)=O)C(=O)N[C@@H](CCC(=O)O)C(=O)N[C@@H](CCCCN)C(=O)N[C@@H](CCC(N)=O)C(=O)N[C@@H](CCCCN)C(=O)N[C@@H](C)C(=O)N[C@@H](CCC(N)=O)C(=O)N[C@@H](CCCNC(=N)N)C(=O)N[C@@H](CCC(=O)O)C(=O)N[C@@H](CCC(N)=O)C(=O)N[C@@H](C)C(=O)N[C@@H](CCC(=O)O)C(=O)N[C@H](C(=O)N[C@@H](CC(N)=O)C(=O)NC(C)(C)C(=O)N[C@@H](CCC(N)=O)C(=O)N[C@H](C(=O)N[C@@H](CC(C)C)C(=O)N[C@@H](C)C(=O)N[C@@H](CCC(N)=O)C(=O)N[C@H](C(N)=O)C(C)C)[C@@H](C)CC)[C@@H](C)O)[C@@H](C)CC)[C@@H](C)CC)C(C)C)C(C)C
- EC50 [nM] 0% HSA (cAMP, A7R5 rat aortic smooth muscle cells): 0.18 nM

B3: peptide of SEQ ID NO: 217 (peptide)
peptide: [NMeI]VLSLD[dV]PIKLK([γGlu-C20 diacid])KILLEQEKQKAQREQAETN[Aib]QILAQV-NH2
modifications: N-terminus assumed
SMILES: CC[C@H](C)[C@H](NC)C(=O)N[C@H](C(=O)N[C@@H](CC(C)C)C(=O)N[C@@H](CO)C(=O)N[C@@H](CC(C)C)C(=O)N[C@@H](CC(=O)O)C(=O)N[C@@H](C(=O)N1CCC[C@H]1C(=O)N[C@H](C(=O)N[C@@H](CCCCN)C(=O)N[C@@H](CC(C)C)C(=O)N[C@@H](CCCCNC(=O)CC[C@H](NC(=O)CCCCCCCCCCCCCCCCCCC(=O)O)C(=O)O)C(=O)N[C@@H](CCCCN)C(=O)N[C@H](C(=O)N[C@@H](CC(C)C)C(=O)N[C@@H](CC(C)C)C(=O)N[C@@H](CCC(=O)O)C(=O)N[C@@H](CCC(N)=O)C(=O)N[C@@H](CCC(=O)O)C(=O)N[C@@H](CCCCN)C(=O)N[C@@H](CCC(N)=O)C(=O)N[C@@H](CCCCN)C(=O)N[C@@H](C)C(=O)N[C@@H](CCC(N)=O)C(=O)N[C@@H](CCCNC(=N)N)C(=O)N[C@@H](CCC(=O)O)C(=O)N[C@@H](CCC(N)=O)C(=O)N[C@@H](C)C(=O)N[C@@H](CCC(=O)O)C(=O)N[C@H](C(=O)N[C@@H](CC(N)=O)C(=O)NC(C)(C)C(=O)N[C@@H](CCC(N)=O)C(=O)N[C@H](C(=O)N[C@@H](CC(C)C)C(=O)N[C@@H](C)C(=O)N[C@@H](CCC(N)=O)C(=O)N[C@H](C(N)=O)C(C)C)[C@@H](C)CC)[C@@H](C)O)[C@@H](C)CC)[C@@H](C)CC)C(C)C)C(C)C
- EC50 [nM] 0% HSA (cAMP, A7R5 rat aortic smooth muscle cells): 0.06 nM

B4: peptide of SEQ ID NO: 218 (peptide)
peptide: [NMeI]VLSLD[dV]PIKLK([γGlu-C20 diacid])KILLEQEKQKEQREQAETN[Aib]QILAQV-NH2
modifications: N-terminus assumed
SMILES: CC[C@H](C)[C@H](NC)C(=O)N[C@H](C(=O)N[C@@H](CC(C)C)C(=O)N[C@@H](CO)C(=O)N[C@@H](CC(C)C)C(=O)N[C@@H](CC(=O)O)C(=O)N[C@@H](C(=O)N1CCC[C@H]1C(=O)N[C@H](C(=O)N[C@@H](CCCCN)C(=O)N[C@@H](CC(C)C)C(=O)N[C@@H](CCCCNC(=O)CC[C@H](NC(=O)CCCCCCCCCCCCCCCCCCC(=O)O)C(=O)O)C(=O)N[C@@H](CCCCN)C(=O)N[C@H](C(=O)N[C@@H](CC(C)C)C(=O)N[C@@H](CC(C)C)C(=O)N[C@@H](CCC(=O)O)C(=O)N[C@@H](CCC(N)=O)C(=O)N[C@@H](CCC(=O)O)C(=O)N[C@@H](CCCCN)C(=O)N[C@@H](CCC(N)=O)C(=O)N[C@@H](CCCCN)C(=O)N[C@@H](CCC(=O)O)C(=O)N[C@@H](CCC(N)=O)C(=O)N[C@@H](CCCNC(=N)N)C(=O)N[C@@H](CCC(=O)O)C(=O)N[C@@H](CCC(N)=O)C(=O)N[C@@H](C)C(=O)N[C@@H](CCC(=O)O)C(=O)N[C@H](C(=O)N[C@@H](CC(N)=O)C(=O)NC(C)(C)C(=O)N[C@@H](CCC(N)=O)C(=O)N[C@H](C(=O)N[C@@H](CC(C)C)C(=O)N[C@@H](C)C(=O)N[C@@H](CCC(N)=O)C(=O)N[C@H](C(N)=O)C(C)C)[C@@H](C)CC)[C@@H](C)O)[C@@H](C)CC)[C@@H](C)CC)C(C)C)C(C)C
- EC50 [nM] 0% HSA (cAMP, A7R5 rat aortic smooth muscle cells): 0.13 nM

B5: peptide of SEQ ID NO: 212 (peptide)
peptide: Ac-IVLSLD[dV]PIKLK([γGlu-C20 diacid])KILLEQEKQKAQREQAETN[Aib]QILAQV-NH2
SMILES: CC[C@H](C)[C@H](NC(C)=O)C(=O)N[C@H](C(=O)N[C@@H](CC(C)C)C(=O)N[C@@H](CO)C(=O)N[C@@H](CC(C)C)C(=O)N[C@@H](CC(=O)O)C(=O)N[C@@H](C(=O)N1CCC[C@H]1C(=O)N[C@H](C(=O)N[C@@H](CCCCN)C(=O)N[C@@H](CC(C)C)C(=O)N[C@@H](CCCCNC(=O)CC[C@H](NC(=O)CCCCCCCCCCCCCCCCCCC(=O)O)C(=O)O)C(=O)N[C@@H](CCCCN)C(=O)N[C@H](C(=O)N[C@@H](CC(C)C)C(=O)N[C@@H](CC(C)C)C(=O)N[C@@H](CCC(=O)O)C(=O)N[C@@H](CCC(N)=O)C(=O)N[C@@H](CCC(=O)O)C(=O)N[C@@H](CCCCN)C(=O)N[C@@H](CCC(N)=O)C(=O)N[C@@H](CCCCN)C(=O)N[C@@H](C)C(=O)N[C@@H](CCC(N)=O)C(=O)N[C@@H](CCCNC(=N)N)C(=O)N[C@@H](CCC(=O)O)C(=O)N[C@@H](CCC(N)=O)C(=O)N[C@@H](C)C(=O)N[C@@H](CCC(=O)O)C(=O)N[C@H](C(=O)N[C@@H](CC(N)=O)C(=O)NC(C)(C)C(=O)N[C@@H](CCC(N)=O)C(=O)N[C@H](C(=O)N[C@@H](CC(C)C)C(=O)N[C@@H](C)C(=O)N[C@@H](CCC(N)=O)C(=O)N[C@H](C(N)=O)C(C)C)[C@@H](C)CC)[C@@H](C)O)[C@@H](C)CC)[C@@H](C)CC)C(C)C)C(C)C
- EC50 [nM] 0% HSA (cAMP, A7R5 rat aortic smooth muscle cells): 0.08 nM

Results, then the binder that gave them:

- EC50 [nM] 0% HSA (cAMP, A7R5 rat aortic smooth muscle cells): 0.45 nM
B2: peptide of SEQ ID NO: 213 (peptide)
peptide: Ac-IVLSLD[dV]PIKLK([γGlu-C20 diacid])KILLEQEKQKEQREQAETN[Aib]QILAQV-NH2
SMILES: CC[C@H](C)[C@H](NC(C)=O)C(=O)N[C@H](C(=O)N[C@@H](CC(C)C)C(=O)N[C@@H](CO)C(=O)N[C@@H](CC(C)C)C(=O)N[C@@H](CC(=O)O)C(=O)N[C@@H](C(=O)N1CCC[C@H]1C(=O)N[C@H](C(=O)N[C@@H](CCCCN)C(=O)N[C@@H](CC(C)C)C(=O)N[C@@H](CCCCNC(=O)CC[C@H](NC(=O)CCCCCCCCCCCCCCCCCCC(=O)O)C(=O)O)C(=O)N[C@@H](CCCCN)C(=O)N[C@H](C(=O)N[C@@H](CC(C)C)C(=O)N[C@@H](CC(C)C)C(=O)N[C@@H](CCC(=O)O)C(=O)N[C@@H](CCC(N)=O)C(=O)N[C@@H](CCC(=O)O)C(=O)N[C@@H](CCCCN)C(=O)N[C@@H](CCC(N)=O)C(=O)N[C@@H](CCCCN)C(=O)N[C@@H](CCC(=O)O)C(=O)N[C@@H](CCC(N)=O)C(=O)N[C@@H](CCCNC(=N)N)C(=O)N[C@@H](CCC(=O)O)C(=O)N[C@@H](CCC(N)=O)C(=O)N[C@@H](C)C(=O)N[C@@H](CCC(=O)O)C(=O)N[C@H](C(=O)N[C@@H](CC(N)=O)C(=O)NC(C)(C)C(=O)N[C@@H](CCC(N)=O)C(=O)N[C@H](C(=O)N[C@@H](CC(C)C)C(=O)N[C@@H](C)C(=O)N[C@@H](CCC(N)=O)C(=O)N[C@H](C(N)=O)C(C)C)[C@@H](C)CC)[C@@H](C)O)[C@@H](C)CC)[C@@H](C)CC)C(C)C)C(C)C

- EC50 [nM] 0% HSA (cAMP, A7R5 rat aortic smooth muscle cells): 3.23 nM
B6: peptide of SEQ ID NO: 168 (peptide)
peptide: Ac-IVLSLD[dV]PIKLK([γGlu-C16 diacid])KILLEQEKQKEQREQAETN[Aib]QILAQV-NH2
SMILES: CC[C@H](C)[C@H](NC(C)=O)C(=O)N[C@H](C(=O)N[C@@H](CC(C)C)C(=O)N[C@@H](CO)C(=O)N[C@@H](CC(C)C)C(=O)N[C@@H](CC(=O)O)C(=O)N[C@@H](C(=O)N1CCC[C@H]1C(=O)N[C@H](C(=O)N[C@@H](CCCCN)C(=O)N[C@@H](CC(C)C)C(=O)N[C@@H](CCCCNC(=O)CC[C@H](NC(=O)CCCCCCCCCCCCCCC(=O)O)C(=O)O)C(=O)N[C@@H](CCCCN)C(=O)N[C@H](C(=O)N[C@@H](CC(C)C)C(=O)N[C@@H](CC(C)C)C(=O)N[C@@H](CCC(=O)O)C(=O)N[C@@H](CCC(N)=O)C(=O)N[C@@H](CCC(=O)O)C(=O)N[C@@H](CCCCN)C(=O)N[C@@H](CCC(N)=O)C(=O)N[C@@H](CCCCN)C(=O)N[C@@H](CCC(=O)O)C(=O)N[C@@H](CCC(N)=O)C(=O)N[C@@H](CCCNC(=N)N)C(=O)N[C@@H](CCC(=O)O)C(=O)N[C@@H](CCC(N)=O)C(=O)N[C@@H](C)C(=O)N[C@@H](CCC(=O)O)C(=O)N[C@H](C(=O)N[C@@H](CC(N)=O)C(=O)NC(C)(C)C(=O)N[C@@H](CCC(N)=O)C(=O)N[C@H](C(=O)N[C@@H](CC(C)C)C(=O)N[C@@H](C)C(=O)N[C@@H](CCC(N)=O)C(=O)N[C@H](C(N)=O)C(C)C)[C@@H](C)CC)[C@@H](C)O)[C@@H](C)CC)[C@@H](C)CC)C(C)C)C(C)C
